Values of other authors in patent US6663886B2, “Inhibition of cell-cell binding by lipid assemblies” (Regents of the University of California, priority 1997, dated 2003).

Molecular target: T1, P-selectin (Homo sapiens, UniProt P16109)
T1 sequence (P16109 42-830): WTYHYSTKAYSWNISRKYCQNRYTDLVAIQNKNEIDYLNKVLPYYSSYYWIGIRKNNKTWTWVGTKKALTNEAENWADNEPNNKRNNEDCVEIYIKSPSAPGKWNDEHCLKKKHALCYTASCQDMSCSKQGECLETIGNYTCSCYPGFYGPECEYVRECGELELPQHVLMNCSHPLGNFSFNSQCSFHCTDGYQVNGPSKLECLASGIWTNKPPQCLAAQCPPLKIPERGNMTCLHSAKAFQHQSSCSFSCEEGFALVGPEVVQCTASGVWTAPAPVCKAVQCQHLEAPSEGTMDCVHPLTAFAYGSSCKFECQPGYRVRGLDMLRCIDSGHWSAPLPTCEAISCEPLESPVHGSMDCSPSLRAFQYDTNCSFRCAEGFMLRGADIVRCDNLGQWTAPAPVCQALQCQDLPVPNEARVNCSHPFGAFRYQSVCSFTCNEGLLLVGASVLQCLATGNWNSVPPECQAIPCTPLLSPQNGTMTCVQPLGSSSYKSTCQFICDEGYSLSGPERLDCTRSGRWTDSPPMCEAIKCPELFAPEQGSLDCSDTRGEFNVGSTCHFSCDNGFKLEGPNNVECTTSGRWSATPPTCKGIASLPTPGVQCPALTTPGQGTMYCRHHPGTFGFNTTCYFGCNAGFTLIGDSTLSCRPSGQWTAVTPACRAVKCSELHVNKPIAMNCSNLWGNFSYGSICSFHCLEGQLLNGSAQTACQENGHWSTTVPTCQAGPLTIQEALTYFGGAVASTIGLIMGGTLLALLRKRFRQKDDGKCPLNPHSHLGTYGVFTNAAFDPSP
Conditions: literature (Nelson et al. 1993; Moore et al. 1991)

binding affinity of P-selectin: in the nM range
B1: natural ligand: natural ligand of P-selectin, P-selectin glycoprotein ligand 1 (protein, UniProt Q14242 42-412, looked up)
P-selectin glycoprotein …: QATEYEYLDYDFLPETEPPEMLRNSTDTTPLTGPGTPESTTVEPAARRSTGLDAGGAVTELTTELANMGNLSTDSAAMEIQTTQPAATEAQTTQPVPTEAQTTPLAATEAQTTRLTATEAQTTPLAATEAQTTPPAATEAQTTQPTGLEAQTTAPAAMEAQTTAPAAMEAQTTPPAAMEAQTTQTTAMEAQTTAPEATEAQTTQPTATEAQTTPLAAMEALSTEPSATEALSMEPTTKRGLFIPFSVSSVTHKGIPMAASNLSVNYPVGAPDHISVKQCLLAILILALVATIFFVCTVVLAVRLSRKGHMYPVRNYSPTEMVCISSLLPDGGEGPSATANGGLSKAKSPGLTPEPREDREGDDLTLHSFLP
